These results are taken from US20070286858A1 (Pfizer, published 2007).

In this assay the target is T1, murine RAGE, full length (mouse, UniProt Q62151 23-402).
T1 construct: Expressed on 293 cells; also called mRAGE; 293-murine RAGE
T1 chain: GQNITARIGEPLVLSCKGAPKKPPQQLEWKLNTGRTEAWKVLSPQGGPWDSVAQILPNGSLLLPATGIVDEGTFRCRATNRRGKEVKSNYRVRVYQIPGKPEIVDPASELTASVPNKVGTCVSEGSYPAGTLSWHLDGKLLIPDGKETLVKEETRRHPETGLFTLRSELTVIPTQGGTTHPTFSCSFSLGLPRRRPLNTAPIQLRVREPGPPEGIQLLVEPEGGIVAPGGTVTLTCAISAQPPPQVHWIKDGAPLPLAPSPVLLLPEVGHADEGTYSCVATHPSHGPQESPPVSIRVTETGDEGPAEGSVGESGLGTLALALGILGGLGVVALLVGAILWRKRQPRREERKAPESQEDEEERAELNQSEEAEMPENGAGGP
Put plainly: cell-based ELISA, 293 cells transfected with murine RAGE. On the procedure: Human embryonic kidney 293 cells (American Tissue Type Culture, Manassas, Va.) cells were plated at 5×10⁶ cells per 10 cm² tissue culture plate and cultured overnight at 37° C. The next day cells were transfected with RAGE expression plasmids (pAdori1-3 vector encoding mouse, human, baboon, cynomologus monkey or rabbit RAGE) using LF2000 reagent (Invitrogen, Carlsbad Calif.) at a 4:1 ratio of reagent to plasmid DNA using the manufacturers protocol. Cells were harvested 48 hrs post-transfection using trypsin, washed once with phosphate buffered saline (PBS), then suspended in growth media without serum at a concentration of 2×10⁶ cells/ml.
Primary antibodies at 1 μg/ml were serially diluted at 1:2 or 1:3 in PBS containing 1% bovine serum albumin (BSA) in a 96-well plate. RAGE-transfected 293 cells or control parental 293 cells (50 μl) at 2×10⁶ cells/ml in serum-free growth medium were added to U-bottom 96 well plate for a final concentration of 1×10⁵ cells/well. The cells were centrifuged at 1600 rpm for 2 minutes. The supernatants were gently discarded by hand with a one-time swing and the plate was patted gently to loose the cell pellet. […] The cells were centrifuged and the supernatants are transferred to a fresh plate and read at 450 nm (Soft MAX pro 4.0, Molecular Devices Corporation, Sunnyvale, Calif.).
On the technique in general: An ELISA detects its analyte on a solid surface through an enzyme-linked reagent.

B1: XT-M4 (antibody, rat IgG2b, V domains shown)
VH: EVQLVESGGGLVQPGRSLKLSCVVSGFTFNNYWMTWIRQTPGKGLEWVASINNSGDNTYYPDSVKDRFTISRDNAKSTLYLQMNSLRSEDTATYYCTRGGDITTGFDYWGQGVMVTVSS
VL: DIQMTQSPSSMSVSLGDTITITCRASQDVGIYVNWFQQKPGKSPRRMIYRATNLADGVPSRFSGSRSGSIYSLTISSLESEDVADYHCLEFDEHPLTFGSGTKVEIK
notes: also called 1mRAGEP3/10; rat XT-M4
By EC50 is commonly meant the concentration that produces a half-maximal response. A lower EC50 goes with an effect from little substance. In turn, B1 gave a half-maximal effective concentration (EC50) of approximately 2.2 nM.
